± gives the standard deviation of the averaged measurements.
system: ATP; assay: switch fluorescence ratio, 500 uM ATP over buffer (Cy3 cluster intensity, sum of 5 cycles each) (fold (ratio)); higher = stronger signal-on switching upon ATP binding; sequences stand for … in TCGTCGGCAGCGTCAGATGTGTATAAGAGACAGTTTTTTTTTTTTTTTTTTTTTTTTT…TC; conditions: aptamer strand: ATP DNA aptamer (quencher-CACCTGGGGGAGTATTGCGGAGGAAGG + anchor), 100 nM annealed; ATP concentration: 500 uM
In short: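 Values give the fluorescence ratio for each switch-domain sequence, averaged from per-cluster ratios of summed target-cycle to summed buffer-cycle Cy3 intensity. The Cy3-labelled switching-strand clusters sat on a modified Illumina MiSeq flow-cell, were annealed to 100 nM quencher-labelled ATP aptamer, and were imaged in selection buffer, then after 15 min with 500 uM ATP at 22 °C. Five cycles ran with NaOH stripping and re-annealing between them, and clusters outside 100-1000 RFU were excluded.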
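Further: ATP exposure 15 min at 22 °C before imaging.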

Sequence | switch fluorescence ratio
CGCCTTGGGG | 1 ± 0.05
GGGTGATCCT | 1.02 ± 0.073
CTGAATTTCA | 0.9833 ± 0.0017
CGGAGACTTG | 0.973 ± 0.068
GGACTTGTCT | 1.01 ± 0.053
TGGGTTATTG | 0.998 ± 0.019
TGGTATCAGC | 0.999 ± 0.048
TAACTAGCGA | 1.027 ± 0.0041
ATTTACTCGT | 1.014 ± 0.0017
AATTGGGCGA | 0.989 ± 0.026
CTACGGAGGG | 1.06 ± 0.023
TCAATGCGAT | 1.33 ± 0.19
CCAAACAGGA | 1.006 ± 0.0063
TCAGGGTCTT | 1.01 ± 0.011
TGATTGAATG | 0.9785 ± 0.001
TATACTATGT | 1.05 ± 0.024
CTGTTTAGTC | 1.01 ± 0.015
GACCGCTGGT | 0.996 ± 0.039
ATAGTTGGA | 0.953 ± 0.019
ACCAGCGAAT | 1.06 ± 0.043
GACCACTTGA | 1.01 ± 0.014
GCTAAAGGTC | 1.05 ± 0.044
GCTTCAGAAA | 1 ± 0.066
TTTTCATTAA | 0.9932 ± 0.008
TAGTATGGCG | 1.04 ± 0.088

Sequence | switch fluorescence ratio
TTCTGGGTCT | 0.9833 ± 0.0042
ACTAGGCTGG | 1.01 ± 0.028
TTACATATGT | 1.02 ± 0.021
TTCGGTAAGG | 1.02 ± 0.013
GCATCAAGTG | 0.988 ± 0.034
TGAAAAAGG | 0.982 ± 0.019
GATCGCCGTT | 1.07 ± 0.063
CTTGTGAGTT | 0.979 ± 0.016
TTTATTTGTT | 1 ± 0.021
ATGAATGGAG | 1.01 ± 0.026
GCATTATCCA | 1.01 ± 0.031
TGGCGGCATG | 1.01 ± 0.06
TAGGGGTCAA | 0.99815 ± 0.0002
TAAGCAGCGA | 1.045 ± 0.0036
TCACAATTTA | 0.9774 ± 0.0044
CTAATAGTTA | 0.972 ± 0.0099
AAATTAGTGT | 0.968 ± 0.018
TTTTTCTAGT | 1.01 ± 0.02
CTCCTGTGTT | 1.06 ± 0.0073
AAAAGAGCCC | 1.0191 ± 0.0008
TATGGCTTTG | 0.9945 ± 0.0061
TTATATTGGA | 0.971 ± 0.017
CGATGTTATG | 1.02 ± 0.022
TTATGTTCGC | 0.975 ± 0.034
TTGAGCTTCA | 1.115 ± 0.0063

Sequence | switch fluorescence ratio
GTTGTTAGAG | 0.989 ± 0.021
TTACTTAGGT | 1.03 ± 0.068
AGTTGTTGGA | 1 ± 0.047
AAATAGGTG | 1.12 ± 0.058
ATTCTTAGGG | 1.12 ± 0.27
GGTTTAAAAT | 0.9581 ± 0.0094
TAGTTCGTTG | 0.9799 ± 0.0081
CGGGAGGGTC | 1.06 ± 0.012
ATGTAAATGA | 0.9855 ± 0.0083
TTTCGGACAA | 1.46 ± 0.5
TTGAGACTCG | 0.995 ± 0.019
TTGGTCGGGG | 0.991 ± 0.023
TGGCTTGGTA | 1 ± 0.02
AAACTAGAAG | 1.01 ± 0.019
GCGGTACTCT | 2.27 ± 0.41
GAATGGTTGT | 1.02 ± 0.023
TTGTGGCAAG | 1 ± 0.018
GGTTAAGGGG | 1.05 ± 0.13
GGAATCAGGT | 1.014 ± 0.0065
CAAGCCGTGT | 1.02 ± 0.036
GGTTCTTGAA | 0.994 ± 0.019
ACGATTGGTG | 1.07 ± 0.056
GGAGGTAATT | 0.981 ± 0.027
ATATGGTTGG | 0.958 ± 0.016
TGAATGATTT | 0.967 ± 0.027

Sequence | switch fluorescence ratio
CAGGTTAGGT | 1.004 ± 0.01
TTAGGGCTCG | 1.01 ± 0.057
CGGTAAGGGG | 0.987 ± 0.01
GAGCCGCCAG | 1.03 ± 0.045
CAGGGGTTTA | 1.03 ± 0.034
AGTAAGTTTT | 1.032 ± 0.0011
TAGGTCTGCA | 1.033 ± 0.0058
TGTGGGAAAA | 1.02 ± 0.048
GCGGGGACGT | 1.02 ± 0.027
AGGTAAGGGC | 1.01 ± 0.015
GGGTGTATGG | 0.981 ± 0.012
GTGGACGTTT | 1.02 ± 0.057
TTTGTATTCA | 1.01 ± 0.06
TTGAGTGGTT | 1.01 ± 0.092
CTTTGGTATA | 0.977 ± 0.0051
TTTTGTTGT | 0.987 ± 0.024
TAATCGGTG | 0.9805 ± 0.0024
TGGTAATGTG | 1.01 ± 0.096
TTCGTTATAC | 2.29 ± 1.1
CATTTAGCTG | 0.9875 ± 0.0055
CCGTCATCTT | 1.024 ± 0.0072
AAGAGATGTG | 0.985 ± 0.024
CAGTTTGTTG | 0.973 ± 0.037
CGGGGGTACG | 1.02 ± 0.074
TAGTGATGCG | 0.967 ± 0.025

Source: the supplement of paper PMC10126150
